According to the supplement of paper PMC10567573:
± gives the standard deviation.

Assay: protein stability index of a GFP-peptide fusion (GPS, HEK-293T) (PSI 1-6); higher = more stable
Conditions: c terminus: a fixed tail appended
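Also: 24-mer peptide tiles fused after GFP, lentivirally expressed, FACS-sorted into six equal bins by GFP/DsRed ratio, decoded by Illumina sequencing, PSI is the read-weighted mean bin number.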

Sequence	protein stability index (treatment: DMSO)	protein stability index (treatment: MLN4924 1 uM, 8 h)
HLYAEPQKSPWCEARSLEHTLPVN [ESR2]	2.93 ± 0.23	3.38 ± 0.24
AHSNAISNCCFTFSGHFLCTSSWD [WDR88]	2.48 ± 0.49	2.3 ± 0.57
LQELCYQWLRPHVSTKEQILDLLV [ZSCAN9]	2.52 ± 0.094	2.45 ± 0.28
PMPVSQECFETLRGDERILSILRH [CHGA]	3.29 ± 0.23	3.02 ± 0.46
ILRAIGKGSFGKVCIVQKNDTKKM [STK32A]	2.4 ± 0.45	2.56 ± 0.22
SGNDPFAPSEGSAEAAPELDLFAM [SNAP91]	4.83 ± 0.2	4.89 ± 0.23
QLLLQFERLVVLDYIIRNTDRGND [PI4K2A]	2.98 ± 0.47	2.64 ± 0.36
ADTRRLNSKPQDLTDAYGPPSNFL [SNX12]	3.97 ± 0.22	3.93 ± 0.068
DHCAQQDHGCEQLCLNTEDSFVCQ [MATN2]	5 ± 0.075	5.08 ± 0.16
LPREPGDSAQFTKALAIILHLLYL [FEM1A]	2.16 ± 0.12	2.23 ± 0.12
LAGPNDRSDVEKGGKIIMPPSALD [UFD1]	4.77 ± 0.11	4.97 ± 0.2
SEALASTRILKHSPESSRGQCGEN [GLIPR2]	5.29 ± 0.21	4.93 ± 0.25
KPGPQDTVERPFYDLWASDNPLDR [NOP53]	4.45 ± 0.43	4.38 ± 0.16
FFNTLHVGGTIRTCQKFLIQYNRR [POP5]	2.02 ± 0.19	2.06 ± 0.23
PLLCPSYQSYFKTIEELQQKILCS [KRT33B]	2.56 ± 0.3	2.56 ± 0.17
DDVEVLTLKKFKGDLAYRRQEYQK [C8orf76]	3.78 ± 0.18	3.92 ± 0.31
CQQNMIQELIETNQQLRNELQLEQ [CEP70]	4.12 ± 0.26	3.85 ± 0.51
EMFLYFEDHGLVTCSADHLIILWK [WDR41]	2.76 ± 0.4	2.68 ± 0.67
REEVRGRELTGLKALYETELADAR [LMNB1]	4.97 ± 0.2	4.83 ± 0.27
YPIYVIPEPPPVSFQPYHPLHFRG [TENT5D]	2.35 ± 0.28	2.32 ± 0.37
SESSLEMDDERYFNEMSAQGLRPR [CCDC6]	4.78 ± 0.2	4.85 ± 0.22
INQPLPDLKNVKSKIGSTDNIKYQ [MAP2]	4.29 ± 0.17	4.47 ± 0.16

Sequence	protein stability index (treatment: DMSO)	protein stability index (treatment: MLN4924 1 uM, 8 h)
ILDAMAEETRQKQLLADEKMKQLT [TRIM35]	4.52 ± 0.23	4.68 ± 0.21
CAFVGALGGAAFLGTAIFIEADRR [SPNS1]	2.8 ± 0.78	2.36 ± 0.67
PPDTVSRTGLEKAAAGAVGLERRD [SPDEF]	5.04 ± 0.15	5.29 ± 0.39
LVWRNSIRSSFISSLSFFLKKMGK [FBXO39]	2.65 ± 0.65	2.9 ± 0.46
TTARERPCVRPGVSGSPVTQNHAA [FBF1]	4.33 ± 0.23	4.51 ± 0.3
TREQLYQAIFHAVDQYLALPDVSL [MCOLN1]	3.37 ± 0.54	2.67 ± 0.61
DLSSESSIKKKFLKRKGKTDSPWI [EHMT1]	3.42 ± 0.37	3.66 ± 0.26
SEAAIGGAMLGQTTSEEAVGGATP [HDAC6]	5.31 ± 0.26	5.4 ± 0.17
SIVTAAKKDILLVNDHLLNFVRER [PDS5B]	2.25 ± 0.16	2.3 ± 0.27
RIYSYQMALTPVVVTLWYRAPEVL [CDK4]	2.98 ± 0.12	2.77 ± 0.47
VPTVSRPYSFIEFDTFIQKTKKLY [SEC22B]	2.3 ± 0.34	2.47 ± 0.17
KKQDENEGIKVEDLLFIVDTMLEE [CEP70]	3.25 ± 0.22	3.27 ± 0.23
DYSDHPSGGSYRDSYESYGNSRSA [RBMX]	4.43 ± 0.36	4.44 ± 0.26
GARCATWFQDPTRFTGTMDAFVKI [SLC25A39]	2.36 ± 0.5	2.61 ± 0.54
ELAYLRKNHEEEMLALRGQTGGDV [KRT16]	4.26 ± 0.28	4.41 ± 0.17
LEPLGAPQAPAPATATDTFEAAPP [CEBPB]	5.38 ± 0.42	5.39 ± 0.44
QCSMPLHVAPLLAAAGLHASPMSA [NR2F2]	2.58 ± 0.26	2.63 ± 0.24
ISENRKRQWPTKSQTDRGASAGKR [SDE2]	4.7 ± 0.28	4.94 ± 0.073
MQRMIQQFAAEYTSKNSSTQDPSQ [LCOR]	3.69 ± 0.41	3.68 ± 0.45
RRHPGLGKAFPSGCSAVSEPASES [TRAF3IP2]	4.31 ± 0.18	4.3 ± 0.41
LTLKVCKPQAPQKLDPTLSSCFFI	2.37 ± 0.59	2.3 ± 0.3
LALFPLLPKVLQKYWCVTATRVAP [ZBED1]	2.98 ± 0.3	2.94 ± 0.94

Sequence	protein stability index (treatment: DMSO)	protein stability index (treatment: MLN4924 1 uM, 8 h)
AYMDRRDHPLPEVAHVKHLSASQK [COX4I1]	4.34 ± 0.32	4.6 ± 0.32
LEEGSSFWNQGLTWKVLFCSMSAT [CLCN6]	3.06 ± 0.55	2.63 ± 0.67
SGAGGTGGPAGQAGRGGAAGTAGV [MYOZ1]	5.07 ± 0.2	4.93 ± 0.17
DAILYYYQSGGRLKRPVNVPFDIF [KCNA4]	2.58 ± 0.54	2.52 ± 0.63
PGSMSEVQELCKQLHAKIDAAEEE [TNNI2]	5.38 ± 0.27	5.36 ± 0.11
DETLSSSHQKCPQLGGPEASGGLV [PLEKHN1]	4.97 ± 0.1	4.8 ± 0.31
ALCELLEKETQIIASIGRHRYIAY [IQUB]	2.25 ± 0.3	2.16 ± 0.24
AVKLADFGLAIEVEGEQQAWFGFA [CAMK2A]	2.51 ± 0.48	2.26 ± 0.5
CGPPSLGAVLALVAIFIMSLNKRH [MFSD9]	3.3 ± 0.89	3.41 ± 1.1
KSKSITNLAAAAADIPQDQLVVMH [BTBD10]	4.43 ± 0.34	4.64 ± 0.4
GAVTASKHSNSPPLVTPPQSPVSP [SMTNL2]	5.33 ± 0.25	5.26 ± 0.19
ASESEHIPKPQSTGWFGGGFTSYL [MIA2]	2.4 ± 0.37	2.69 ± 0.34
PLAVENQAGGEGAGGELGISLNMC [PBXIP1]	4.22 ± 0.25	4.12 ± 0.24
NGQKPLGAAEPITVKFANNPSQKT [ELAVL3]	4.85 ± 0.36	4.83 ± 0.23
EEHLSPLDFLHSANFSLGSINQRL [RNF180]	3.17 ± 0.38	3.41 ± 0.24
PEEGQQPWLCGESFTLADVSLAVT [GDAP1]	3.27 ± 0.23	3.4 ± 0.21
LNTRSQAPLLRWVLTLSFLVATVA [HMOX1]	2.33 ± 0.46	2.15 ± 0.31
ALALQARGCSVKIWTAHYDPGHCF [ALG2]	2.25 ± 0.41	2.23 ± 0.26
PVPATAPSPAPAVAAAAAATTAAT [SNAP91]	5.32 ± 0.16	5.25 ± 0.097
FYIGKYFGGVLEYFMIQALNQKTS [RHOBTB3]	2.96 ± 0.33	3.31 ± 0.58
PGYLPYSPEPPSLYGALNPQYEFK [IRX6]	2.87 ± 0.36	3.16 ± 0.33
